# Data published in patent US20160271244A1.
# Key:
# [1] = molecular target: gp120 (Table 2, strain not given); assay: Luminex bead assay
# [2] = molecular target: HIV-1 Env gp41 (HIV-1) (UniProt P05877); assay: Luminex bead assay
# [3] = molecular target: recombinant human kynureninase (rhKYNU) (human) (UniProt Q16719); assay: ELISA on plate-bound rhKYNU, antibody titrated
# [4] = molecular target: recombinant human kynureninase (rhKYNU) (human) (UniProt Q16719); assay: ELISA on plate-bound rhKynureninase, antibody titrated
# [5] = molecular target: recombinant human kynureninase (rhKYNU) (human) (UniProt Q16719); assay: ELISA on plate-bound rhKYNU, 2F5 titrated (overlay with DP178-Q16L)
# [6] = molecular target: membrane conjugated gp41-inter; assay: SPR, gp41-inter held by Ni on liposomes captured on the chip, mAb injected; bivalent analyte fit [left panel]
# [7] = molecular target: HCV E2 (HCV); assay: Luminex assay, antibody 50 µg/ml
# [8] = molecular target: Influenza HA (Wisconsin) (influenza virus); assay: Luminex assay, antibody 50 µg/ml
# [9] = molecular target: Histone; assay: Athena autoantigen assay, mAb 25 ug/ml
# [10] = molecular target: Jo 1; assay: Athena autoantigen assay, mAb 25 ug/ml
# Chain of Jo 1 (P12081 2-509): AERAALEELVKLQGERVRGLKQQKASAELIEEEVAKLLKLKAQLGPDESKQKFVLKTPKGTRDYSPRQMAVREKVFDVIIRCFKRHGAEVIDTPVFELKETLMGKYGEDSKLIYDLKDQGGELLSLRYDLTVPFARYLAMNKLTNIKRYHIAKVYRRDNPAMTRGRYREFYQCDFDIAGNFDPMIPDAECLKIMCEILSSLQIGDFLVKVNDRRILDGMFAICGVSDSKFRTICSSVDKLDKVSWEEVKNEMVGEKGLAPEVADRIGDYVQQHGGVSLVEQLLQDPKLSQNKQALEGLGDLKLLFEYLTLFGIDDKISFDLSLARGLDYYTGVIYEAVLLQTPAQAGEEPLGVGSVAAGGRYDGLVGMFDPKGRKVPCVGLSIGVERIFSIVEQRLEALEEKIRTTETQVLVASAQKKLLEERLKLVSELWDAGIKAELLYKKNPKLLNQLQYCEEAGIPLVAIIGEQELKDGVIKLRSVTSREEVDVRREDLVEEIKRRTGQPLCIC
# [11] = molecular target: RNP; assay: Athena autoantigen assay, mAb 25 ug/ml
# [12] = molecular target: SSA; assay: Athena autoantigen assay, mAb 25 ug/ml
# [13] = molecular target: SSB; assay: Athena autoantigen assay, mAb 25 ug/ml
# Chain of SSB (P05455 whole entry): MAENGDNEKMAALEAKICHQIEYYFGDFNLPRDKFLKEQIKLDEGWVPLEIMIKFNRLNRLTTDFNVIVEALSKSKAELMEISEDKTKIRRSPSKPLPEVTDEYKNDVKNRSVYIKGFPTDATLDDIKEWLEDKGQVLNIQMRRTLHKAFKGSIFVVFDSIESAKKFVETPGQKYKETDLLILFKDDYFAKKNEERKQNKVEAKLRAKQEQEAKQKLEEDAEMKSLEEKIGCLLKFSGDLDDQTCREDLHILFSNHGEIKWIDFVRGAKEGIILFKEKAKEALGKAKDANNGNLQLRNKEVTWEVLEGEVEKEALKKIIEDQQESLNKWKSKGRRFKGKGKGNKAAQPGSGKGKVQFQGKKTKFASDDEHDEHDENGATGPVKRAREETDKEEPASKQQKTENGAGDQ
# [14] = molecular target: Scl 70; assay: Athena autoantigen assay, mAb 25 ug/ml
# [15] = molecular target: Sm; assay: Athena autoantigen assay, mAb 25 ug/ml
# [16] = molecular target: Histone; assay: Athena autoantigen assay, mAb 50 ug/ml
# [17] = molecular target: Jo 1; assay: Athena autoantigen assay, mAb 50 ug/ml
# [18] = molecular target: SSA; assay: Athena autoantigen assay, mAb 50 ug/ml
# [19] = molecular target: SSB; assay: Athena autoantigen assay, mAb 50 ug/ml
# [20] = molecular target: Histone; assay: Athena autoantigen assay, mAb 12.5 ug/ml
# [21] = molecular target: Jo 1; assay: Athena autoantigen assay, mAb 12.5 ug/ml
# [22] = molecular target: RNP; assay: Athena autoantigen assay, mAb 12.5 ug/ml
# [23] = molecular target: SSA; assay: Athena autoantigen assay, mAb 12.5 ug/ml
# [24] = molecular target: SSB; assay: Athena autoantigen assay, mAb 12.5 ug/ml
# [25] = molecular target: Scl 70; assay: Athena autoantigen assay, mAb 12.5 ug/ml
# [26] = molecular target: Sm; assay: Athena autoantigen assay, mAb 12.5 ug/ml
# [27] = molecular target: Histone; assay: Athena autoantigen assay, mAb 6.25 ug/ml
# [28] = molecular target: Jo 1; assay: Athena autoantigen assay, mAb 6.25 ug/ml
# [29] = molecular target: RNP; assay: Athena autoantigen assay, mAb 6.25 ug/ml
# [30] = molecular target: SSA; assay: Athena autoantigen assay, mAb 6.25 ug/ml
# [31] = molecular target: SSB; assay: Athena autoantigen assay, mAb 6.25 ug/ml
# [32] = molecular target: Scl 70; assay: Athena autoantigen assay, mAb 6.25 ug/ml
# [33] = molecular target: Sm; assay: Athena autoantigen assay, mAb 6.25 ug/ml
# [34] = molecular target: JRFL gp140 (HIV-1); assay: SPR, MAb on the surface, Env injected; JRFFL wt (not deglycosylated)
# [35] = molecular target: deglycosylated JRFL gp140 CF (HIV-1); assay: SPR, MAb on the surface, Env injected; JRFL wt DEG 5 (PNGase 5 U/µg)
# [36] = molecular target: deglycosylated JRFL gp140 CF (HIV-1); assay: SPR, MAb on the surface, Env injected; JRFL wt DEG 20 (PNGase 20 U/µg)
# [37] = molecular target: deglycosylated JRFL gp140 CF (HIV-1); assay: SPR, MAb on the surface, Env injected; JRFL wt DEG 500 (PNGase 500 U/µg)
# [38] = molecular target: JRFL gp140 (HIV-1); assay: SPR, MAb on the surface, Env injected; JRFFL wt (not deglycosylated); Koff (x10^-3 s-1)
# [39] = molecular target: deglycosylated JRFL gp140 CF (HIV-1); assay: SPR, MAb on the surface, Env injected; JRFL wt DEG 5 (PNGase 5 U/µg); Koff (x10^-3 s-1)
# [40] = molecular target: membrane conjugated gp41-inter; assay: SPR, gp41-inter held by Ni on liposomes captured on the chip, mAb injected; bivalent analyte fit [right panel]
# [41] = molecular target: JRFL gp140 (HIV-1); assay: SPR, MAb on the surface, Env injected; JRFFL wt (not deglycosylated); Kon (x10^3 M-1s-1)
# [42] = molecular target: deglycosylated JRFL gp140 CF (HIV-1); assay: SPR, MAb on the surface, Env injected; JRFL wt DEG 5 (PNGase 5 U/µg); Kon (x10^3 M-1s-1)
# [43] = molecular target: deglycosylated JRFL gp140 CF (HIV-1); assay: SPR, MAb on the surface, Env injected; JRFL wt DEG 20 (PNGase 20 U/µg); Koff (x10^-3 s-1)
# [44] = molecular target: deglycosylated JRFL gp140 CF (HIV-1); assay: SPR, MAb on the surface, Env injected; JRFL wt DEG 20 (PNGase 20 U/µg); Kon (x10^3 M-1s-1)
# [45] = molecular target: deglycosylated JRFL gp140 CF (HIV-1); assay: SPR, MAb on the surface, Env injected; JRFL wt DEG 500 (PNGase 500 U/µg); Koff (x10^-3 s-1)
# [46] = molecular target: deglycosylated JRFL gp140 CF (HIV-1); assay: SPR, MAb on the surface, Env injected; JRFL wt DEG 500 (PNGase 500 U/µg); Kon (x10^3 M-1s-1)
# [47] = molecular target: RNP; assay: Athena autoantigen assay, mAb 50 ug/ml
# [48] = molecular target: Env (gp120) of HIV-1 7165.18.N160K (HIV-1); assay: cell-based or functional assay
# [49] = molecular target: Env (gp120) of HIV-1 JRCSF.N160K (HIV-1) (UniProt P20871); assay: cell-based or functional assay
# [50] = molecular target: Env (gp120) of HIV-1 JRFL.E168K (HIV-1); assay: cell-based or functional assay
# [51] = molecular target: Env (gp120) of HIV-1 JRFL.N160K.E168K (HIV-1); assay: cell-based or functional assay
# [52] = molecular target: Env (gp120) of HIV-1 Q23.17.N160K (HIV-1); assay: cell-based or functional assay
# [53] = molecular target: Env (gp120) of HIV-1 isolate 7165.18 (HIV-1); assay: cell-based or functional assay
# [54] = molecular target: Env (gp120) of HIV-1 isolate JRCSF (HIV-1) (UniProt P20871); assay: cell-based or functional assay
# [55] = molecular target: Env (gp120) of HIV-1 isolate JRFL (virus) (HIV-1); assay: cell-based or functional assay
# [56] = molecular target: Env (gp120) of HIV-1 isolate Q23.17 (HIV-1); assay: cell-based or functional assay
# [57] = molecular target: HV00044 (6240 TZ5 140C) (HIV-1); assay: surface plasmon resonance; five sensorgrams with fitted curves, highest rising to about 650 RU with almost no dissociation up to 1000 s
# Chain of recombinant human kynureninase (rhKYNU) (human) (Q16719 whole entry): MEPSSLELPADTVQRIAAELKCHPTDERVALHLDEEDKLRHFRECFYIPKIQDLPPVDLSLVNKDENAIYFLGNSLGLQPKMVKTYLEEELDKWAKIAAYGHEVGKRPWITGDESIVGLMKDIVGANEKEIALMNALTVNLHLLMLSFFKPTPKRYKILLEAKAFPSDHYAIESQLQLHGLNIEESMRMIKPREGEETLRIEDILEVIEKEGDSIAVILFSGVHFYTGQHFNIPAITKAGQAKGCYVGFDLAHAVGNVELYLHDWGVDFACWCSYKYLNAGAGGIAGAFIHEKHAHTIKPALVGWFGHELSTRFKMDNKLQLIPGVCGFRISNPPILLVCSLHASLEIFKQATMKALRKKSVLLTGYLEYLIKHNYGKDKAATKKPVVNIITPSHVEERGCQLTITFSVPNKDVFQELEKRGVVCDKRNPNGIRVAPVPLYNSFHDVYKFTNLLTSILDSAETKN
substance,measurement,setting,value
1b12 original (antibody),Reactivity in Luminex Units (Luminex units),[1],5110
2F5 (antibody),Reactivity in Luminex Units (Luminex units),[2],32700
same,Reactivity in Luminex Units (Luminex units),[1],9240
same,EC50 (read off the curve),[3],0.05 µg/mL
same,EC50 (read off the curve),[4],0.03 µg/mL
same,EC50 (read off the curve),[5],0.05 µg/mL
same,Kd,[6],0.21 nM
same,koff,[6],9e-06 s⁻¹
4E10 (antibody),background subtracted RFUs,[7],89.2 RFU
same,background subtracted RFUs,[8],0 RFU
same,Athena autoreactivity score,[9],274
same,Athena autoreactivity score,[10],138
same,Athena autoreactivity score,[11],15
same,Athena autoreactivity score,[12],247
same,Athena autoreactivity score,[13],206
same,Athena autoreactivity score,[14],4
same,Athena autoreactivity score,[15],7
same,Athena autoreactivity score,[16],333
same,Athena autoreactivity score,[17],156
same,Athena autoreactivity score,[18],306
same,Athena autoreactivity score,[19],254
same,Athena autoreactivity score,[20],160
same,Athena autoreactivity score,[21],87
same,Athena autoreactivity score,[22],9
same,Athena autoreactivity score,[23],169
same,Athena autoreactivity score,[24],124
same,Athena autoreactivity score,[25],3
same,Athena autoreactivity score,[26],5
same,Athena autoreactivity score,[27],113
same,Athena autoreactivity score,[28],65
same,Athena autoreactivity score,[29],6
same,Athena autoreactivity score,[30],115
same,Athena autoreactivity score,[31],93
same,Athena autoreactivity score,[32],2
same,Athena autoreactivity score,[33],4
same,Kd,[34],2200 nM
same,Kd,[35],135 nM
same,Kd,[36],40 nM
same,Kd,[37],50 nM
same,koff,[38],0.0013 s⁻¹
same,koff,[39],0.001 s⁻¹
same,Kd,[40],0.73 nM
same,koff,[40],2.5e-05 s⁻¹
same,kon,[41],600 M⁻¹ s⁻¹
same,kon,[42],7400 M⁻¹ s⁻¹
same,koff,[43],0.00099 s⁻¹
same,kon,[44],27000 M⁻¹ s⁻¹
same,koff,[45],0.001 s⁻¹
same,kon,[46],21000 M⁻¹ s⁻¹
17b original (CCR5 binding site antibody),Reactivity in Luminex Units (Luminex units),[2],1430
CH02 (antibody),background subtracted RFUs,[7],333 RFU
same,background subtracted RFUs,[8],0.3 RFU
same,Athena autoreactivity score,[9],11.5
same,Athena autoreactivity score,[10],1.5
same,Athena autoreactivity score,[11],9
same,Athena autoreactivity score,[12],6
same,Athena autoreactivity score,[13],4.5
same,Athena autoreactivity score,[14],2
same,Athena autoreactivity score,[15],3
same,Athena autoreactivity score,[20],8.5
same,Athena autoreactivity score,[21],1
same,Athena autoreactivity score,[22],6
same,Athena autoreactivity score,[23],5
same,Athena autoreactivity score,[24],3.5
same,Athena autoreactivity score,[25],1.5
same,Athena autoreactivity score,[26],2.5
same,Athena autoreactivity score,[27],7
same,Athena autoreactivity score,[28],1.5
same,Athena autoreactivity score,[29],5
same,Athena autoreactivity score,[30],5
same,Athena autoreactivity score,[31],5
same,Athena autoreactivity score,[32],2
same,Athena autoreactivity score,[33],2.5
CH03 (antibody),background subtracted RFUs,[7],2910 RFU
same,background subtracted RFUs,[8],1 RFU
same,Athena autoreactivity score,[9],386
same,Athena autoreactivity score,[10],4
same,Athena autoreactivity score,[11],70
same,Athena autoreactivity score,[12],6
same,Athena autoreactivity score,[13],4
same,Athena autoreactivity score,[14],7
same,Athena autoreactivity score,[15],10
same,Athena autoreactivity score,[16],844
same,Athena autoreactivity score,[47],132
same,Athena autoreactivity score,[20],359
same,Athena autoreactivity score,[21],4
same,Athena autoreactivity score,[22],74
same,Athena autoreactivity score,[23],6
same,Athena autoreactivity score,[24],6
same,Athena autoreactivity score,[25],8
same,Athena autoreactivity score,[26],9
same,Athena autoreactivity score,[27],231
same,Athena autoreactivity score,[28],3
same,Athena autoreactivity score,[29],51
same,Athena autoreactivity score,[30],5
same,Athena autoreactivity score,[31],5
same,Athena autoreactivity score,[32],4
same,Athena autoreactivity score,[33],7
CH04 (antibody),background subtracted RFUs,[7],0.5 RFU
same,background subtracted RFUs,[8],2.5 RFU
CH05 (antibody),background subtracted RFUs,[7],1.3 RFU
same,background subtracted RFUs,[8],5.5 RFU
PG9 (antibody),IC50 (virus neutralization),[48],> 50 µg/mL
same,IC80 (virus neutralization),[48],> 50 µg/mL
same,IC50 (virus neutralization),[49],> 50 µg/mL
same,IC80 (virus neutralization),[49],> 50 µg/mL
same,IC50 (virus neutralization),[50],0.008 µg/mL
same,IC80 (virus neutralization),[50],0.055 µg/mL
same,IC50 (virus neutralization),[51],> 50 µg/mL
same,IC80 (virus neutralization),[51],> 50 µg/mL
same,IC50 (virus neutralization),[52],> 50 µg/mL
same,IC80 (virus neutralization),[52],> 50 µg/mL
same,IC50 (virus neutralization),[53],> 50 µg/mL
same,IC80 (virus neutralization),[53],> 50 µg/mL
same,IC50 (virus neutralization),[54],0.003 µg/mL
same,IC80 (virus neutralization),[54],0.008 µg/mL
same,IC50 (virus neutralization),[55],> 50 µg/mL
same,IC80 (virus neutralization),[55],> 50 µg/mL
same,IC50 (virus neutralization),[56],0.002 µg/mL
same,IC80 (virus neutralization),[56],0.005 µg/mL
same,background subtracted RFUs,[7],0 RFU
same,background subtracted RFUs,[8],0 RFU
same,Kd,[57],0.75 nM
PG16 (antibody),IC50 (virus neutralization),[48],> 50 µg/mL
same,IC80 (virus neutralization),[48],> 50 µg/mL
same,IC50 (virus neutralization),[49],> 50 µg/mL
same,IC80 (virus neutralization),[49],> 50 µg/mL
same,IC50 (virus neutralization),[50],0.003 µg/mL
same,IC80 (virus neutralization),[50],0.015 µg/mL
same,IC50 (virus neutralization),[51],> 50 µg/mL
same,IC80 (virus neutralization),[51],> 50 µg/mL
same,IC50 (virus neutralization),[52],> 50 µg/mL
same,IC80 (virus neutralization),[52],> 50 µg/mL
same,IC50 (virus neutralization),[53],11.8 µg/mL
same,IC80 (virus neutralization),[53],> 50 µg/mL
same,IC50 (virus neutralization),[54],0.003 µg/mL
same,IC80 (virus neutralization),[54],0.012 µg/mL
same,IC50 (virus neutralization),[55],> 50 µg/mL
same,IC80 (virus neutralization),[55],> 50 µg/mL
same,IC50 (virus neutralization),[56],0.001 µg/mL
same,IC80 (virus neutralization),[56],0.003 µg/mL
same,background subtracted RFUs,[7],0 RFU
same,background subtracted RFUs,[8],0 RFU
Synagis (anti-RSV control mAb) (antibody),background subtracted RFUs,[7],0.5 RFU
same,background subtracted RFUs,[8],1 RFU
